Experimental data reported in patent US8889130B2, “Treatment of osteoarthritis and pain” (Abbvie Inc., priority 2011, dated 2014).

T1: hIL-1α (Homo sapiens, UniProt P01583)
T1 sequence (P01583 113-271): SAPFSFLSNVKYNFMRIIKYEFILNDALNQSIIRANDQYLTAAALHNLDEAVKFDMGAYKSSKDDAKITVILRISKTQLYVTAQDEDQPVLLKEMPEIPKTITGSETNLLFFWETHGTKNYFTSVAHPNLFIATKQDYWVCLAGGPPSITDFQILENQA


Columns and labels:
hIL-1α = target: T1, hIL-1α; test: Surface plasmon resonance (Biacore) binding kinetics and affinity to hIL-1α; conditions: antigen hIL-1α
Method: (§1) The kinetics of DVD-Ig molecules binding to rhIL1-α and rhIL1-β was determined by surface plasmon resonance-based measurements with a Biacore 3000 instrument (Biacore AB, Uppsala, Sweden) using HBS-EP (10 mM HEPES, pH 7.4, 150 mM NaCl, 3 mM EDTA, and 0.005% surfactant P20) at 25° C. All chemicals were obtained from Biacore AB (Uppsala, Sweden) or otherwise from a different source as described herein. Approximately, 5000 RU of goat anti-human IgG Fcγ fragment specific polyclonal antibody (Pierce Biotechnology Inc, Rockford, Ill.) diluted in 10 mM sodium acetate (pH 4.5) was directly immobilized across a CM5 research grade biosensor chip using a standard amine coupling kit according to manufacturer's instructions and procedures at […]. Unreacted moieties on the biosensor surface were blocked with ethanolamine. Modified carboxymethyl dextran surface in flowcell 2 and 4 was used as a reaction surface. Unmodified carboxymethyl dextran without goat anti-human IgG in flow cell 1 and 3 was used as the reference surface. For kinetic analysis, rate equations derived from the 1:1 Langmuir binding model were fitted simultaneously to association and dissociation phases of all ten injections (using global fit analysis) using the Bioevaluation 4.0.1 software. Purified DVD-Ig samples were diluted in HEPES-buffered saline for capture across goat anti-human IgG Fc specific reaction surfaces and injected over reaction matrices at a flow rate of […]. The association and dissociation rate constants, kon (M-1s-1) and koff (s-1) were determined under a continuous flow rate of […]. Rate constants were derived by making kinetic binding measurements at ten different antigen concentrations ranging from 1.25 to 1000 nM. The equilibrium dissociation constant (M) of the reaction between DVD-Ig molecule and rhIL1α/β was then calculated from the kinetic rate constants by the following formula: KD=koff/kon. Aliquots of rhIL1α/β samples were also simultaneously injected over a blank reference and reaction CM surface to record and subtract any nonspecific binding background to eliminate the majority of the refractive index change and injection noise. Surfaces were regenerated with two subsequent […] injections of 10 mM Glycine (pH 1.5) at a flow rate of […]. The anti-Fc antibody immobilized surfaces were completely regenerated and retained their full capture capacity over twelve cycles. The apparent stoichiometry of the captured DVD-Ig-rhIL1α/β complex was calculated under saturating binding conditions (steady-state equilibrium) using the following formula: […]

[1] = Size exclusion chromatography (SEC): physical homogeneity and in vitro stability; type: physicochemical; conditions: 0.2-0.4 mg/ml in PBS, SEC
Method: For measuring molecular weight (MW) of light and heavy chains of DVD-Ig binding protein, 10 μL of DVD-Ig molecule (0.8 μg/μL) was reduced by 1.0 M DTT solution (5 μL). A PLRP-S, 8μ, 4000 A, and 1×150 mm protein column (Michrom BioResource, Auburn, Mass.) was used to separate heavy and light chains of DVD-Ig molecule. Agilent HP1100 Capillary HPLC (Agilent Technologies Inc., Pala Alto, Calif.) was used with the mass spectrometer QSTAR (Applied Biosystems, Foster City, Calif.). The valco valve was set at 10 minutes to switch the flow from waste to MS for desalting sample. Buffer A was 0.02% TFA, 0.08% FA, 0.1% ACN and 99.8% HPLC-H2O. Buffer B contained 0.02% TFA, 0.08% FA, 0.1% HPLC-H2O, and 99.8% ACN. The HPLC flow rate was 50 μL/minute and the sample injection volume was […]. The temperature of the column oven was set at 60° C., and separation gradient was: 5% B for 5 minutes; 5% B to 65% B for 35 minutes; 65% B to 95% B for another 5 minutes, and 95% B to 5% B for 5 minutes. TOFMS scan was from 800 to 2500 amu, and cycles were 3600. To determine the MW of full length DVD-Ig binding protein, a Protein MicroTrap cartridge (Michrom BioResource, Auburn, Mass.) was used for desalting the sample. The HPLC gradient was: 5% B for 5 minutes; 5% B to 95% B in 1 minute; and from 95% B to 5% B in another 4 minutes. The QSTAR TOFMS scan was from 2000 to 3500 amu, and cycles were 899. All MS raw data were analyzed using the Analyst QS software (Applied Biosystems). For SEC analysis of the DVD-Ig binding protein, purified DVD-Ig binding protein and chimeric Abs, in PBS, were applied on a Superose 6 10/300 G2, 300×10 mm column (Amersham Bioscience, Piscataway, N.J.). An HPLC instrument, Model 10A (Shimadzu, Columbia, Md.) was used for SEC. All proteins were determined using UV detection at 280 nm and 214 nm. The elution was isocratic at a flow rate of 0.5 mL/minute. For stability study, samples in the concentration range of 0.2-0.4 mg/ml in PBS underwent 3 freeze-thaw cycles between −80° C. and 25° C., or were incubated at 4° C., 25° C., or 40° C., for 4 weeks and 8 weeks, followed by SEC analysis.
In order to determine the precise molecular weight of the DVD-Ig binding proteins, mass spectrometry was employed. […] To further study the physical properties of DVD-Ig binding protein in solution, size exclusion chromatography (SEC) was used to analyze each protein.
The physical stability of DVD-Ig was tested as follows. Purified antibodies in the concentration range of 0.2-0.4 mg/ml in PBS underwent 3 freeze-thaw cycles between −80° C. and 25° C., or were incubated at 4° C., 25° C., or 40° C., for 4 weeks and 8 weeks, followed by analysis using size exclusion chromatography (SEC) analysis (see Table 12).

hIL-1β = hIL-1β (Homo sapiens, UniProt P01584); test: Surface plasmon resonance (Biacore) binding kinetics and affinity to hIL-1β; conditions: antigen hIL-1β
Method: as §1

[2] = 3xFreeze-Thaw between −80° C. and 25° C.

Sequence of hIL-1β (P01584 117-269): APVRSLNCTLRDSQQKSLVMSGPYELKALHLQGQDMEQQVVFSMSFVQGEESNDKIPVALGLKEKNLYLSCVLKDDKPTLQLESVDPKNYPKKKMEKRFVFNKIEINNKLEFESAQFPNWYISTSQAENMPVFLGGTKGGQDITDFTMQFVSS

Molecule | koff (hIL-1α) | kon (hIL-1α) | Ab (intact antibody) [1, 2] | Agg (aggregates) [1, 2] | Frgm (fragments) [1, 2] | Ab (intact antibody) ([1]; 4° C. @ 4 Wks) | Agg (aggregates) ([1]; 4° C. @ 4 Wks) | Frgm (fragments) ([1]; 4° C. @ 4 Wks) | Ab (intact antibody) ([1]; 4° C. @ 8 Wks) | Agg (aggregates) ([1]; 4° C. @ 8 Wks) | Frgm (fragments) ([1]; 4° C. @ 8 Wks) | Ab (intact antibody) ([1]; 25° C. @ 4 Wks) | Agg (aggregates) ([1]; 25° C. @ 4 Wks) | Frgm (fragments) ([1]; 25° C. @ 4 Wks) | Ab (intact antibody) ([1]; 25° C. @ 8 Wks) | Frgm (fragments) ([1]; 25° C. @ 8 Wks) | Ab (intact antibody) ([1]; 40° C. @ 4 Wks) | Agg (aggregates) ([1]; 40° C. @ 4 Wks) | Frgm (fragments) ([1]; 40° C. @ 4 Wks) | Ab (intact antibody) ([1]; 40° C. @ 8 Wks) | further results
3D12.E3-Ch: murine-human chimeric form of 3D12.E3 (anti-hIL-1α) with human constant region (antibody, V domains shown) VH: QIQLVQSGPELKKPGETVKISCKASGYTFRNYGMNWVKQAPGKDLKRMAWINTYTGESTYADDFKGRFAFSLETSASTAYLQINNLKNEDTATYFCARGIYYYGSSYAMDYWGQGTSVTVSS VL: NIQMTQTTSSLSASLGDRVTISCRASQDISNCLNWYQQKPDGTVKLLIYYTSRLHSGVPSRFSGSGSGTDYSLTISNLEQEDIATYFCQQGKTLPYAFGGGTKLEINR | 0.000552 s⁻¹ | 412000 M⁻¹ s⁻¹ | 98.28 percentage | 1.72 percentage | 0.00 percentage | 99.15 percentage | 0.85 percentage | 0.00 percentage | 90.33 percentage | 5.35 percentage | 4.32 percentage | 98.71 percentage | 1.29 percentage | 0.00 percentage | 60.55 percentage | 38.34 percentage | 98.35 percentage | 1.65 percentage | 0.00 percentage | 81.47 percentage | Agg (aggregates) ([1]; 40° C. @ 8 Wks): 4.74 percentage; Frgm (fragments) ([1]; 40° C. @ 8 Wks): 13.79 percentage
13F5.G5-Ch: murine-human chimeric form of 13F5.G5 (anti-hIL-1β) with human constant region (antibody, V domains shown) VH: QVQLQQSGAELVRPGSSVKISCKASGYAFSSYWMNWVKQRPGQGLEWIGQIYPGDGDTNYNGKFKGKATLTADKSSSTSYMQLSGLTSEDSAMYFCVRFPTGNDYYAMDYWGQGTSVTVSS VL: NIVLTQSPASLAVSLGQRATISCRASESVDSYGNSYMHWYQQKPGQPPKLLIYLASNLESGVPARFSGSGSRTDFTLTIDPVEADDAATYYCQQNNEDPFTFGSGTKLEIKR |  |  | 87.0 percentage | 13.0 percentage | 0.0 percentage | 95.8 percentage | 4.2 percentage | 0.0 percentage | 97.8 percentage | 2.2 percentage | 0.0 percentage | 100.0 percentage | 0.0 percentage | 0.0 percentage | 97.5 percentage | 1.0 percentage | 78.1 percentage | 20.3 percentage | 1.6 percentage | 65.4 percentage | koff (hIL-1β): 0.000654 s⁻¹; kon (hIL-1β): 1.41e+06 M⁻¹ s⁻¹; Agg (aggregates) ([1]; 25° C. @ 8 Wks): 1.4 percentage; Agg (aggregates) ([1]; 40° C. @ 8 Wks): 34.6 percentage; Frgm (fragments) ([1]; 40° C. @ 8 Wks): 0.0 percentage
13F5.G5: murine monoclonal antibody to human IL-1β; VH SEQ ID NO: 95, VL SEQ ID NO: 96 (antibody, listed as Mus musculus, V domains shown) VH: QVQLQQSGAELVRPGSSVKISCKASGYAFSSYWMNWVKQRPGQGLEWIGQIYPGDGDTNYNGKFKGKATLTADKSSSTSYMQLSGLTSEDSAMYFCVRFPTGNDYYAMDYWGQGTSVTVSS VL: NIVLTQSPASLAVSLGQRATISCRASESVDSYGNSYMHWYQQKPGQPPKLLIYLASNLESGVPARFSGSGSRTDFTLTIDPVEADDAATYYCQQNNEDPFTFGSGTKLEIKR |  |  |  |  |  |  |  |  |  |  |  |  |  |  |  |  |  |  |  |  | koff (hIL-1β): 0.000621 s⁻¹; kon (hIL-1β): 2.13e+06 M⁻¹ s⁻¹
3D12.E3: murine monoclonal antibody to human IL-1α; VH SEQ ID NO: 89, VL SEQ ID NO: 90 (antibody, listed as Mus musculus, V domains shown) VH: QIQLVQSGPELKKPGETVKISCKASGYTFRNYGMNWVKQAPGKDLKRMAWINTYTGESTYADDFKGRFAFSLETSASTAYLQINNLKNEDTATYFCARGIYYYGSSYAMDYWGQGTSVTVSS VL: NIQMTQTTSSLSASLGDRVTISCRASQDISNCLNWYQQKPDGTVKLLIYYTSRLHSGVPSRFSGSGSGTDYSLTISNLEQEDIATYFCQQGKTLPYAFGGGTKLEINR | 0.000713 s⁻¹ | 643000 M⁻¹ s⁻¹ |  |  |  |  |  |  |  |  |  |  |  |  |  |  |  |  |  |  | 
